Results: the supplement of paper PMC9170038

system: K4 kissing-loop RNA reporter; test: apparent KD of K4 kissing-loop reporter; higher = weaker reporter binding; conditions: Eterna round: R107; input ligand: arginine 13.2 mM
Experimental: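 RNA-MaP round R107: designed RNA switches with theophylline, tryptophan, arginine or FMN aptamers are transcribed on-chip within common flanks. They are titrated with a labelled K4 kissing-loop RNA reporter in RNA-MaP buffer (100 mM Tris pH 7.5, 80 mM KCl, 4 mM MgCl2), without ligand or with the indicated ligand. Median apparent KD per design.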
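Note: bound reporter read as fluorescence of individual clusters on recovered sequencing chips by microscopy, with normalized cluster intensities fitted with a binding model.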

| Sequence | apparent KD of K4 kissing-loop reporter [µM] |
| --- | --- |
| AAACAUUGGUCUGAUACCAGCUUGAUCGGAAAACGAUCUGCUGGAGUGAUGUUCCAAUAAAGCCCUUGGCAGCAGACCGAUGAAA [MAT - Same State Theophlline B - Mod of Eli - D13] | 0.444 |
| UGGCAGGUAUCGGCCGCCACUUUCUAGUACAUACGCAUAUCUUUACCAUCAGUGAUGUUGAUCAUAAGGACCGGGAUACAUCAGG [theeternabot_exclusion_KL_Trp_B_22] | 0.208 |
| UGUCAUUGGUCUGAUACCAGUUAGACCGAUAAGGUCAAAACUGGAGUGAUGUUCCCAAAUAACCCUUGGCAGCAGACCGAUGACU [TheoBS 5 #SwitchBubble #StaticStem] | 0.116 |
| AGGUUUUGAUUAGGAUAUGCAUUGACGAUGAGAAUAUAGUGAUGUUAUAUACUACGAAUUAGUAAAGUAGAAGGGAUUGAGGUUU [SSFMNB.aA] | 0.275 |
| AAGAAGGUCAAAGACCUUCGUGCACGUGAUACCAGUCGCGAAAGCGACCCUUGGCAGCACGGCAGUGAUGUUGCCAAGUGCACAA [#12 K4 Theophylline A Same State] | 0.249 |
| UAAUCCUAGUGAUACUUAUCAAGUGGUGGGCGAGGACCGGUACGGCCGCCACUCGAAUAUGCAGUGAUGUUGUAAUCCGGAUAAU [Exclusion - Tryptophan A (Freestyle 8)] | 0.722 |
| GAUAAUAGCACGGCCGCCACUGAAAAGCCGUGCUAUACGAGUGAUGUUCGUAAUUAUACGGGAUUCAGGACCGGGUGCAACGGUA [Tryp B SS t1] | 0.115 |
| AAUGCAUAGUGAAGGAGCGCGAUAAGCAGUGAUGUUGCUUAGCUAUUAUUCAUUAUUUUAACGCAGGUAGGUCGCACUUUGCAUA [JR_ExcArginiB_Sub015] | 0.127 |
| UCCAGCAGUACUGAUACCAGACUGCAUGUAGUGAUGUUGCAUAAGGGCAUAGAUGUCUCAGUCCCUUGGCAGCAGUACUGUUGCA [Theo B SS t1] | 0.239 |
| UGACUGGACUGAAGGAGCGUUCAGGUAGGUCGCUAUGGAGUGAUGUUCCAUAGAAGGAGCGAACAGGUAGGUCGCAGUCUAGUCU [ArgBS 30 #DoubleAptamer #SwitchBubble] | 0.1 |
| AAUCUCCUAGUGAUGUUAGGUUUAAGGGAAGGAGCGAGGUAAUACUCAGGUAGGUCGCCCACAUGCAUUAAUAAAUCAAUUUAAU | 0.0738 |
| UGUCAUUGGUCUGAUACCAGCUGAUCGGAAACGAUCAUGCUGGAGUGAUGUUCCAGGAAAAGCCCUUGGCAGCAGACCGAUGACU [TheoBS 11 #SwitchBubble #StaticStem] | 0.248 |
| AAUGUGCAGGGAAGGAGCGUAGUCCAGUGCUGUUGGAGUUAGAUACCAGUGAUGUUGGUUAUACAGGUAGGUCGCCCUAGAGCGC [whbob_Ex_Arginine_B_2th162] | 0.119 |
| GGAUAGGAUAGAGGAUAUGGAUUAGGCAAGAAUAACUUGUCAUGUAAAUCCAUGAGGAGUGAUGUUCCAGAAGGCUGUCCUAUCG [MatMod 7 - Jieux - Exclusion - FMN B] | 0.116 |
| AUCUCGGUAUCAGAUACCAGACUAUCGAUACCGAGUGUAUCGGGUAGUGAUGUUACCAUAGUCCCUUGGCAGCUGGUAGUUCAUA [Theo B SS t9c] | 0.249 |
| CCGAAGAACCAGUGAUGUUGGUUGACUAGACAGGAUAUGAGCAACAUCAGAAGGGUCUGGCUUCGGGAGUGGGUCGCGCUGACCU [Geeredin] | 0.136 |
| AGAACUGUCUGAGAUACCAGCCGAGGAGUGAUGUUCCGGCUCGACGAAACGUCGAGCCACGGCCCUUGGCAGCUCAGACAGUUCA [Omei KL Theo B SS A v1] | 0.287 |
| UCGCGUCUGCGAGGAUAUCGGAUUAGAGUGAUGUUCUAUAAACGCCCAGUGAUGUUGGAUGCGAUACGAGAAGGCGCUGGGCGCA [Same State FMN B GF8] | 0.28 |
| AUCGGGAAUACGGCCGCCACUAUAGAGGCGACUACAUACCACCACAGUGAUGUUGUGCUGACCAGUAGGACCGGGUAAAAUCGAU [theeternabot_exclusion_KL_Trp_B_49] | 0.594 |
| GACAUACCUAUGGAGGGCCGAUCGAACAAACGAGGACCGGUACGGCCGCCACUCGUGGGCAGUGAUGUUGACCCUGGGAGGUAAG | 0.41 |
| AUAAAUAAUAAUGACUGAGAGUUUGGUGAGCGAGGACCGGUACGGCCGCCACUCGUACAUGAGUGAUGUUCUUGUAUGAGUCAGA [KL-XTryp-A6 #analogue] | 0.0976 |
| UGUCAUUGGUCGGCCGCCACUUCAAAGAGAGUGAUGUUCUUAAAGACGGAUCGAAAGAUCUGUCGAAGGACCGGGACCGAUGACU [TrypBS 17 #SwitchBubble #StaticStem] | 0.973 |
| CGCAGUGAUGUUGCGAGUUAAUUCAGGGAAGGAGCGCCACAGAUGGCAGGUAGGUCGCCCACGCAGUGAUGUUGCGUAUUCGGGU [Exclusion Arginine A GF 4] | 0.0968 |
| AUAGGCAUAGCCCGAGUGAUGUUCGACGAUACCAGCCUCGAUAGAGGCCCUUGGCAGCGUAAAUGAUCAUGAAGCCAAGGAAUAA [whbob_Ex_Theo_A_th69] | 0.313 |

same assay, conditions: Eterna round: R107; input ligand: none

| Sequence | apparent KD of K4 kissing-loop reporter [µM] |
| --- | --- |
| CCGCCAUCAUCAGAUACCAGGCUGAUGGCGGUAACCGCCAAGCGAGUGAUGUUCGCAUCAGUCCCUUGGCAGCUGAUGAAGACUG [#15 K4 Theophylline B Same State] | 0.146 |
| GAGGUUUACGUAGGAUAUCGGUAAUGAGUAGAUGGAGUGAUGUUCCGAAAUUGAAUAGGAGAUGGGCGAGAAGGGCGGAUUAAGC [whbob_SS_FMNB__2th204] | 0.0774 |
| GCCGUAGAUUGAAGGAGCGGUAUGGGCGGUGGCUGAGUGAUGUUCAGGAAAAGUGGCUUCUACCAGGUAGGUCGCAAUCUACGGC | 0.127 |
| ACACUUUACGUAGGAUAUGCGACGAGUGAUGUUCGUCAGGCGGCUUUAGAUUAAACAAGCCGCCUAGCAGAAGGACGGGCAGUGU [Zaorleon] | 0.188 |
| UCUGCUGUAUAUGAUACCAGCAGUGAGAGACAGGAAGUAUAGUGAUGUUAUAUGAGAGAAUGCCCUUGGCAGCGUGUGCGGGUGG [SSTheophylB.Y] | 0.0817 |
| AAGUGUGUGGCGGCCGCCACUAGUAUCCAGUGAUGUUGGAGAUAUCACGUAAGUGAUAUCCUACAUAGGACCGGGCCAUAUAGAA [Same State - Tryptophan B (Freestyle 20)] | 0.337 |
| AACGUUUUGUGAAGGAGCGCGAUAAGCAGUGAUGUUGCUUACUAUCAAUUUAUAUUUUACACGCAGGUAGGUCGCACAAUACGUA [JR_SSArginiB_Sub018] | 0.16 |
| AAAGUUGAUGAGUUGGGUAUGUGUUCCGAAGGAGCGAGAUUUAUCUCAGGUAGGUCGCGGAACUUGAGUGAUGUUCAUGUAUAAA [KL-XArg-A9 #analogue] | 0.491 |
| AAACAUUGGUCUGAUACCAGCUUGAUCGGAAAACGAUCUGCUGGAGUGAUGUUCCAAUAAAGCCCUUGGCAGCAGACCGAUGAAA [MAT - Same State Theophlline B - Mod of Eli - D13] | 0.818 |
| UGGCAGGUAUCGGCCGCCACUUUCUAGUACAUACGCAUAUCUUUACCAUCAGUGAUGUUGAUCAUAAGGACCGGGAUACAUCAGG [theeternabot_exclusion_KL_Trp_B_22] | 0.249 |
| UGUCAUUGGUCUGAUACCAGUUAGACCGAUAAGGUCAAAACUGGAGUGAUGUUCCCAAAUAACCCUUGGCAGCAGACCGAUGACU [TheoBS 5 #SwitchBubble #StaticStem] | 0.185 |
| AGGUUUUGAUUAGGAUAUGCAUUGACGAUGAGAAUAUAGUGAUGUUAUAUACUACGAAUUAGUAAAGUAGAAGGGAUUGAGGUUU [SSFMNB.aA] | 0.324 |
| AAGAAGGUCAAAGACCUUCGUGCACGUGAUACCAGUCGCGAAAGCGACCCUUGGCAGCACGGCAGUGAUGUUGCCAAGUGCACAA [#12 K4 Theophylline A Same State] | 0.498 |
| UAAUCCUAGUGAUACUUAUCAAGUGGUGGGCGAGGACCGGUACGGCCGCCACUCGAAUAUGCAGUGAUGUUGUAAUCCGGAUAAU [Exclusion - Tryptophan A (Freestyle 8)] | 0.997 |
| GAUAAUAGCACGGCCGCCACUGAAAAGCCGUGCUAUACGAGUGAUGUUCGUAAUUAUACGGGAUUCAGGACCGGGUGCAACGGUA [Tryp B SS t1] | 0.139 |
| AAUGCAUAGUGAAGGAGCGCGAUAAGCAGUGAUGUUGCUUAGCUAUUAUUCAUUAUUUUAACGCAGGUAGGUCGCACUUUGCAUA [JR_ExcArginiB_Sub015] | 0.128 |
